Test results reported in the supplement of paper PMC7877785.
± gives the uncertainty stated by the source.

Experiment: self-splicing fitness, log relative to wild type (ln ratio); higher = more splicing; Tetrahymena group I intron in knt gene, E. coli kanamycin selection, DiMSum; sequences stand for … in CUCUCU…GGAGGGAAAAGUUAUCAGGCAUGCACCUGGUAGCUAGUCUUUAAACCAAUAGAUUGCAUCGGUUUAAAAGGCAAGACCGUCAAAUUGCGGGAAAGGGGUCAACAGCCGUUCAGUACCAAGUCUCAGGGGAAACUUUGAGAUGGCCUUGCAAAGGGUAUGGUAAUAAGCUGACGGACAUGGUCCUAACCACGCAGCCAAGUCCUAAGUCAACAGAUCUUCUGUUGAUAUGGAUGCAGUUCACAGACUAAAUGUCGGUCGGGGAAGAUGUAUUCUUCUCAUAAGAUAUAGUCGGACCUCUCCUUAAUGGGAGCUAGCGGAUGAAGUGAUGCAACACUGGAGCCGCUGGGAACUAAUUUGUAUGCGAAAGUAUAUUGAUUAGUUUUGGAGUACUCGUGGUCG
In short: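 Pooled colonies went to amplicon sequencing on an Illumina HiSeq 2500 after six replicate transformations. The plates were LB agar with 100 μg/mL carbenicillin, 50 μM IPTG and 0.2% rhamnose, with or without 25 μg/mL kanamycin, incubated overnight at 37°C or 30°C. The E. coli BL21(DE3) library had all eight P1ex-region intron nucleotides randomised, the intron placed in the knt kanamycin-resistance gene on pET-22b(+). DiMSum fitness is the error-weighted combination of replicate fold changes, kanamycin against none, normalised to wild type.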

Sequence	self-splicing fitness (ln) (30 °C)	self-splicing fitness (ln) (37 °C)
AGUUAGCAAUAUUACGGACU	-3.24 ± 0.28	-1.03 ± 0.25
AGUUAGCAAUAUUACGGAUA	-2 ± 0.31	-1.42 ± 0.25
AGUUAGCAAUAUUACGGAUG	-0.996 ± 0.11	-0.801 ± 0.15
AGUUAGCAAUAUUACGGCGC	-0.53 ± 0.22	0.14 ± 0.33
AGUUAGCAAUAUUACGUAAU	-2.56 ± 0.14	-1.47 ± 0.14
AGUUAGCAAUAUUACGUCCG	-1.32 ± 0.15	-0.0933 ± 0.19
AGUUAGCAAUAUUACGUCGG	-3.45 ± 0.23	-1.67 ± 0.16
AGUUAGCAAUAUUACGUCUC	-3.73 ± 0.37	-2.44 ± 0.36
AGUUAGCAAUAUUACGUGGA	-1.87 ± 0.13	-1.58 ± 0.12
AGUUAGCAAUAUUACGUUCA	-1.28 ± 0.15	-0.155 ± 0.16
AUAAAGCAAUAUUACGAAAC	-2.47 ± 0.19	-1.18 ± 0.32
AUAAAGCAAUAUUACGAAAU	-0.905 ± 0.067	-0.451 ± 0.098
AUAAAGCAAUAUUACGAACU	0.222 ± 0.095	0.227 ± 0.11
AUAAAGCAAUAUUACGAAGU	-1.82 ± 0.088	-1.01 ± 0.098
AUAAAGCAAUAUUACGACAG	-1.2 ± 0.1	-1.15 ± 0.12
AUAAAGCAAUAUUACGACCA	-0.122 ± 0.09	0.00323 ± 0.12
AUAAAGCAAUAUUACGCAUA	-1.34 ± 0.088	-0.0324 ± 0.11
AUAAAGCAAUAUUACGCAUG	-0.888 ± 0.073	-0.405 ± 0.093
AUAAAGCAAUAUUACGCCAC	-1.94 ± 0.38	

Sequence	self-splicing fitness (ln) (30 °C)	self-splicing fitness (ln) (37 °C)
AUAAAGCAAUAUUACGCCGU	0.151 ± 0.11	-0.694 ± 0.12
AUAAAGCAAUAUUACGCCUG	0.243 ± 0.077	-0.132 ± 0.09
AUAAAGCAAUAUUACGCGCC	-0.37 ± 0.13	-0.473 ± 0.2
AUAAAGCAAUAUUACGCUCC	-0.366 ± 0.16	-0.365 ± 0.24
AUAAAGCAAUAUUACGCUUA	-1.27 ± 0.1	0.137 ± 0.12
AUAAAGCAAUAUUACGGGCU	-0.992 ± 0.08	-0.621 ± 0.1
AUAAAGCAAUAUUACGUAUA	-1.91 ± 0.099	-0.351 ± 0.12
AUAAAGCAAUAUUACGUAUC	-3.77 ± 0.18	-2.02 ± 0.19
AUAAAGCAAUAUUACGUCAA	-1.54 ± 0.088	-0.873 ± 0.094
AUAAAGCAAUAUUACGUGGA	-3.9 ± 0.17	-1.38 ± 0.1
AUAAAGCAAUAUUACGUGGG	-2.92 ± 0.095	-3.02 ± 0.15
AUAAAGCAAUAUUACGUGUC	-3.44 ± 0.14	-3.4 ± 0.12
AUAAAGCAAUAUUACGUUAU	-0.793 ± 0.064	-0.4 ± 0.11
AUAAAGCAAUAUUACGUUGC	-3.81 ± 0.19	-3.29 ± 0.29
AUAAAGCAAUAUUACGUUUG	-2.84 ± 0.11	-1.79 ± 0.12
AUACAGCAAUAUUACGAAAA	-2.58 ± 0.26	-1.4 ± 0.18
AUACAGCAAUAUUACGAAAC		-3.1 ± 0.24
AUACAGCAAUAUUACGAAGA	-3.16 ± 0.2	-2.04 ± 0.17
AUACAGCAAUAUUACGACAC	-0.517 ± 0.11	-1.31 ± 0.13
